To fix the notation:
B1: Pistol ribozyme (parent)
chain: GGGUCGUUGUUCCAUAAUCGCGUGGAUAUGGCACGCAAGUUUCUACCGGGCACCGUAAAUGUCCGACUGGAGCCGUUCGGGCGGCUAUAAACAGACCUCAGGCCCGAAGCGUGGCGGCACCUGCCGCCGGUGGUAAAAAAGAUCGGAAGAGCACACGUCU

This data set covers variants of B1. As to the kind of experiment: aptazyme ON/OFF ratio, guanine; higher = stronger switching; co-transcriptional cleavage with and without guanine.
As to U8A G9C U10C U11C C13G, the “aptazyme ON/OFF ratio” value was 1.06.

As to U8A G9C U10C U11C C13U, the “aptazyme ON/OFF ratio” value stood at 0.998.

For U8A G9C U10C U11C C13A, the “aptazyme ON/OFF ratio” value was 1.02.

As for U8A G9A U10G U11G C13A, the “aptazyme ON/OFF ratio” value was 1.17.

As to U8A G9A U10G U11G C13U, the “aptazyme ON/OFF ratio” value was determined as 1.05.

Take U8A G9A U10G U11G C13G: the “aptazyme ON/OFF ratio” value was found to be 1.12.

On to U8A G9A U11A C12A, for which the “aptazyme ON/OFF ratio” value was 1.08.

As for U8A G9A U11A C12U, the “aptazyme ON/OFF ratio” value came to 1.05.

Consider U8A G9A U11A C12G, for which the “aptazyme ON/OFF ratio” value is 1.31.

As to U8A G9A U11C C12G C13G, the “aptazyme ON/OFF ratio” value amounted to 1.15.

Consider U8A G9A U11C C12G C13A, for which the “aptazyme ON/OFF ratio” value came out at 1.15.

For the variant U8A G9A U11C C12G C13U, the “aptazyme ON/OFF ratio” value was found to be 1.22.

Turning to U8A G9C U10A U11C C12G C13U, the “aptazyme ON/OFF ratio” value amounted to 1.07.

For the variant U8A G9C U10A U11C C12G C13A, the “aptazyme ON/OFF ratio” value stood at 1.13.

Consider U8A G9C U10A U11C C12G C13G, for which the “aptazyme ON/OFF ratio” value was 1.09.

Consider U8A G9A U10C U11A C12G C13U, for which the “aptazyme ON/OFF ratio” value stood at 1.22.

Consider U8A G9A U10C U11A C12G C13A, for which the “aptazyme ON/OFF ratio” value was 1.19.

Consider U8A G9A U10C U11A C12G C13G, for which the “aptazyme ON/OFF ratio” value came out at 1.12.

Turning to U8A G9A U11C C12A, the “aptazyme ON/OFF ratio” value amounted to 1.16.

Regarding U8A G9A U11C C12G, the “aptazyme ON/OFF ratio” value amounted to 1.17.

With U8A G9A U11C C12U, the “aptazyme ON/OFF ratio” value came out at 1.09.

As for U8A G9C U10C C12G C13G, the “aptazyme ON/OFF ratio” value turned out to be 1.03.

For the variant U8A G9C U10C C12G C13U, the “aptazyme ON/OFF ratio” value came out at 1.05.

U8A G9C U10C C12G C13A: the “aptazyme ON/OFF ratio” value is 1.07.

As for U8A G9C U10A U11A C12U C13U, the “aptazyme ON/OFF ratio” value came out at 1.17.

Take U8A G9C U10A U11A C12U C13G: the “aptazyme ON/OFF ratio” value worked out at 1.19.

U8A G9C U10A U11A C12U C13A: the “aptazyme ON/OFF ratio” value turned out to be 1.18.

Turning to U8A G9A U10G C12G C13A, the “aptazyme ON/OFF ratio” value is 1.14.

On to U8A G9A U10G C12G C13U, for which the “aptazyme ON/OFF ratio” value was found to be 1.26.

For U8A G9A U10G C12G C13G, the “aptazyme ON/OFF ratio” value is 1.1.

For the variant U8A G9C U10A U11G C12G C13G, the “aptazyme ON/OFF ratio” value stood at 1.16.

Take U8A G9C U10A U11G C12G C13A: the “aptazyme ON/OFF ratio” value amounted to 1.15.

As to U8A G9C U10A U11G C12G C13U, the “aptazyme ON/OFF ratio” value was determined as 1.21.

On to U8A G9A U10G U11G C12U, for which the “aptazyme ON/OFF ratio” value came to 1.2.

In the case of U8A G9A U10G U11G C12G, the “aptazyme ON/OFF ratio” value came out at 1.26.

With U8A G9A U10G U11G C12A, the “aptazyme ON/OFF ratio” value was found to be 1.09.

With U8A G9A U10C U11C C12G C13G, the “aptazyme ON/OFF ratio” value is 1.13.

Consider U8A G9A U10C U11C C12G C13A, for which the “aptazyme ON/OFF ratio” value is 1.03.

For U8A G9A U10C U11C C12G C13U, the “aptazyme ON/OFF ratio” value came out at 1.07.

U8A G9C U10A C13A: the “aptazyme ON/OFF ratio” value stood at 1.15.

Turning to U8A G9C U10A C13U, the “aptazyme ON/OFF ratio” value is 1.13.

Turning to U8A G9C U10A C13G, the “aptazyme ON/OFF ratio” value was 1.06.

Regarding U8A G9C U10A C12G, the “aptazyme ON/OFF ratio” value was found to be 1.17.

Consider U8A G9C U10A C12U, for which the “aptazyme ON/OFF ratio” value came to 1.14.

With U8A G9C U10A C12A, the “aptazyme ON/OFF ratio” value amounted to 1.27.

As to U8A G9A U10C C13U, the “aptazyme ON/OFF ratio” value worked out at 1.11.

As to U8A G9A U10C C13A, the “aptazyme ON/OFF ratio” value came out at 1.06.

Take U8A G9A U10C C13G: the “aptazyme ON/OFF ratio” value came out at 1.04.

U8A G9A U11A C13A: the “aptazyme ON/OFF ratio” value was determined as 1.26.

With U8A G9A U11A C13G, the “aptazyme ON/OFF ratio” value turned out to be 1.03.

In the case of U8A G9A U11A C13U, the “aptazyme ON/OFF ratio” value was determined as 1.16.

As for U8A G9C U10C U11G C12A C13U, the “aptazyme ON/OFF ratio” value was 1.02.

As to U8A G9C U10C U11G C12A C13G, the “aptazyme ON/OFF ratio” value came out at 1.08.

Consider U8A G9C U10C U11G C12A C13A, for which the “aptazyme ON/OFF ratio” value turned out to be 1.06.

As to U8A G9C U10A C12A C13U, the “aptazyme ON/OFF ratio” value came out at 1.19.

Turning to U8A G9C U10A C12A C13G, the “aptazyme ON/OFF ratio” value worked out at 1.14.

On to U8A G9C U10A C12A C13A, for which the “aptazyme ON/OFF ratio” value worked out at 1.22.

In the case of U8A G9A U10G U11A C12A C13U, the “aptazyme ON/OFF ratio” value was found to be 1.25.

In the case of U8A G9A U10G U11A C12A C13A, the “aptazyme ON/OFF ratio” value stood at 1.19.

On to U8A G9A U10G U11A C12A C13G, for which the “aptazyme ON/OFF ratio” value is 1.24.

Take U8A G9C U10C U11G C12A: the “aptazyme ON/OFF ratio” value was found to be 1.07.

In the case of U8A G9C U10C U11G C12G, the “aptazyme ON/OFF ratio” value is 1.12.

As to U8A G9C U10C U11G C12U, the “aptazyme ON/OFF ratio” value was found to be 1.08.

Regarding U8A G9A U10C U11G C12A C13A, the “aptazyme ON/OFF ratio” value was found to be 1.19.

With U8A G9A U10C U11G C12A C13G, the “aptazyme ON/OFF ratio” value is 1.23.

For the variant U8A G9A U10C U11G C12A C13U, the “aptazyme ON/OFF ratio” value was 1.17.

Regarding U8A G9A U10G U11C C13U, the “aptazyme ON/OFF ratio” value came to 1.04.

U8A G9A U10G U11C C13G: the “aptazyme ON/OFF ratio” value turned out to be 1.05.

Consider U8A G9A U10G U11C C13A, for which the “aptazyme ON/OFF ratio” value came to 1.07.

As to U8A G9A U10C U11A C12U C13U, the “aptazyme ON/OFF ratio” value was 1.33.

In the case of U8A G9A U10C U11A C12U C13A, the “aptazyme ON/OFF ratio” value is 1.31.

On to U8A G9A U10C U11A C12U C13G, for which the “aptazyme ON/OFF ratio” value worked out at 1.21.

U8A G9A U10G C12U C13U: the “aptazyme ON/OFF ratio” value stood at 1.41.

For the variant U8A G9A U10G C12U C13G, the “aptazyme ON/OFF ratio” value is 1.17.

As to U8A G9A U10G C12U C13A, the “aptazyme ON/OFF ratio” value came out at 1.34.

On to U8A G9A U10G U11A C12U C13U, for which the “aptazyme ON/OFF ratio” value came to 0.98.

As for U8A G9A U10G U11A C12U C13A, the “aptazyme ON/OFF ratio” value came to 1.12.

For the variant U8A G9A U10G U11A C12U C13G, the “aptazyme ON/OFF ratio” value amounted to 1.07.

With U8A G9C U10C U11C C12U C13A, the “aptazyme ON/OFF ratio” value came out at 1.01.

On to U8A G9C U10C U11C C12U C13G, for which the “aptazyme ON/OFF ratio” value amounted to 1.01.

On to U8A G9C U10C U11C C12U C13U, for which the “aptazyme ON/OFF ratio” value came to 1.03.

In the case of U8A G9A U10C U11A C13G, the “aptazyme ON/OFF ratio” value amounted to 1.07.

For the variant U8A G9A U10C U11A C13U, the “aptazyme ON/OFF ratio” value was 1.15.

(Values after the RNAGym collection of RNA variant scans (doi:10.1021/acssynbio.7b00057).)
